Assay results: PMC2613638 (The Journal of Biological Chemistry, 2009)
Where “and” joins values, the source holds several entries; their conditions need not be identical. Identical values can stand only once.

T1: CPN (Homo sapiens, UniProt P15169)
T1 sequence (P15169 21-458): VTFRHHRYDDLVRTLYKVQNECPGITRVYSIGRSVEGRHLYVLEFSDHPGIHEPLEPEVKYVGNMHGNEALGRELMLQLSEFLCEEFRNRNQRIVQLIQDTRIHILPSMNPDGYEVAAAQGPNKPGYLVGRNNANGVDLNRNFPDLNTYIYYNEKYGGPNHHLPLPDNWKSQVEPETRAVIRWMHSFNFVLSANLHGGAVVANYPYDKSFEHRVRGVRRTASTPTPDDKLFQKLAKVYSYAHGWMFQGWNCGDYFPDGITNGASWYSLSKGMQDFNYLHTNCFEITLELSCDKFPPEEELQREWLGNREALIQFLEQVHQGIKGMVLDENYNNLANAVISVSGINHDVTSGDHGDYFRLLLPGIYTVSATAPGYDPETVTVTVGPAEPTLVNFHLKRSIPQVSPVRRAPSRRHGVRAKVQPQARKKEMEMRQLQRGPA

T2: CPB (TAFIa) (Homo sapiens, UniProt Q96IY4)
T2 sequence (Q96IY4 115-423): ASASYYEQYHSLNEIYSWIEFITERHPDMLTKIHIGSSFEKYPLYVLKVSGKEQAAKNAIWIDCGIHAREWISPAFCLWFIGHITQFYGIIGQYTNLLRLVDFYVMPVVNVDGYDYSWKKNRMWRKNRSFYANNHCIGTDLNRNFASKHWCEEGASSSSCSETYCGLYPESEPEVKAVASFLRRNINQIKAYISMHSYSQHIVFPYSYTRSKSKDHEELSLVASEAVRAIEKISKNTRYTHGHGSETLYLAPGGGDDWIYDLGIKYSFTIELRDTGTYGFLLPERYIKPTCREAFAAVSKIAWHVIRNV

T3: human CMKLR1 (Homo sapiens, UniProt Q99788)
T3 sequence (Q99788 1-373): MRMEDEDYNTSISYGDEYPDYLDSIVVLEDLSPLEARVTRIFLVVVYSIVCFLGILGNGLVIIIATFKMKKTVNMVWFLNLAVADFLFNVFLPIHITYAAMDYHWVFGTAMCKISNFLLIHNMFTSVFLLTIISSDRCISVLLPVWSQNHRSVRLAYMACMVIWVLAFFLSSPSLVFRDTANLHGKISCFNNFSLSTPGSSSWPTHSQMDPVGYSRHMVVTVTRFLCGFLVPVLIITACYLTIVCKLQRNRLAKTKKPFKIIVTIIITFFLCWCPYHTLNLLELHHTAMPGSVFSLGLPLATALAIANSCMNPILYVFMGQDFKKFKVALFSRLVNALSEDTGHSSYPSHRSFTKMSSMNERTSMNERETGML


Legend:
[1] = target: T1, CPN; details: CPN cleavage of comparison peptides; cited from earlier work
[2] = target: T2, CPB (TAFIa); details: CPB cleavage of comparison peptides; cited from earlier work
[3] = target: T3, human CMKLR1; assay: In vitro transwell chemotaxis of CMKLR1/L1.2 transfectants; type: cell-based
[4] = test system: plasmin; assay: plasmin; details: human
[5] = test system: Cathepsin G; details: cited from earlier work
[6] = test system: Tryptase; details: cited from earlier work
[7] = test system: Elastase; details: cited from earlier work
[8] = test system: Staphopain B; details: cited from earlier work
[9] = test system: plasmin followed by CPN; assay: plasmin; details: 37 °C, up to 30 min plasmin, then 30 min CPN
[10] = test system: Human plasmin; assay: plasmin; details: 37°, up to 30 min
[11] = test system: plasmin followed by CPB; assay: plasmin; details: human, 37 °C, up to 30 min plasmin, then 30 min CPB
[12] = test system: washed platelets; assay: Chemerin release from washed platelets; type: cell-based, human; details: 37 °C for 3 min; thrombin receptor-activating peptide 20 μM, collagen 10 μg/ml, ADP 10 μM; Fig. 6C

Molecule	Km [1]	kcat [1]	kcat/Km [1]	Km [2]	kcat [2]	kcat/Km [2]	other results
Bradykinin (RPPGFSPFR; Bradykinin; UniProt P01042 381-389, looked up)	303 ± 29.1 µM	9.1 ± 0.2 s⁻¹	30000 M⁻¹ s⁻¹	70.6 ± 4.8 µM	19.7 ± 4.8 s⁻¹	280000 M⁻¹ s⁻¹	–
N=C(N)NCCSCC(CS)C(=O)O (racemic) [MGTA, DL-2-Mercaptomethyl-3 guanidinoethylthiopropanoic acid]	–	–	–	–	–	–	effect on PPP-induced increase of bioactivity of plasmin-cleaved prochemerin ([3]; MGTA 5 μM in PPP, treated prochemerin 0.2 nM, Fig. 4B): inhibited
C5a^66-74: comparison substrate peptide derived from C5a (SHKDMQLGR; C5a anaphylatoxin; UniProt P01031 743-751, looked up, fragment)	602 ± 74.3 µM	9.3 ± 0.4 s⁻¹	15000 M⁻¹ s⁻¹	219 ± 16.2 µM	29.5 ± 0.7 s⁻¹	130000 M⁻¹ s⁻¹	–
NH2-ADPELTEAQ...FAFSKALPRSPHHHHHH-COOH	–	–	–	–	–	–	fragment found [4]: NH2-YFPGQFAFSK-COOH form (21-158); fragment found [5]: ...YFPGQFAF (21-156); fragment found [6]: ...YFPGQFAFSK (21-158) and ...YFPGQFA (21-155); fragment found [7]: ...YFPGQFAFS (21-157) and ...YFPGQFA (21-155) and ...YFPG (21-152); fragment found [8]: ...YFPGQFAFS (21-157)
YFPGQFAFSKALPRS	–	–	–	–	–	–	fragment found [9]: 9-mer (YFPGQFAFS); fragment found [10]: 10-mer (YFPGQFAFSK); fragment found [11]: 9-mer (YFPGQFAFS)
thrombin	–	–	–	–	–	–	chemerin activities of PPP after addition of thrombin ([3]; thrombin 5 units/ml added to PPP, 37 °C 5 min, Fig. 6B): had no effect; chemotaxis of CMKLR1-transfected cells ([3]; thrombin itself): did not induce the chemotaxis
C3a^69-77: comparison substrate peptide derived from C3a (RASHLGLAR; C3a anaphylatoxin; UniProt P01024 740-748, looked up, fragment)	77.1 ± 11.2 µM	57.9 ± 2.1 s⁻¹	750000 M⁻¹ s⁻¹	35.9 ± 6.6 µM	8.4 ± 0.6 s⁻¹	230000 M⁻¹ s⁻¹	–
collagen	–	–	–	–	–	–	release of chemerin from washed platelets [12]: induced the release of chemerin
prochemerin: recombinant full-length prochemerin with carboxyl-terminal His6 tag, expressed in insect cells (protein, UniProt Q99969 21-163, looked up, pro-form C-terminal His6 tag) pro-form: ELTEAQRRGLQVALEEFHKHPPVQWAFQETSVESAVDTPFPAGIFVRLEFKLQQTSCRKRDWKKPECKVRPNGRKRKCLACIKLGSEDKVLGRLVHCPIETQVLREAEEHQETQCLRVQRAGEDPHSFYFPGQFAFSKALPRS	–	–	–	–	–	–	CMKLR1-mediated chemotaxis after treatment with CPN and CPB alone ([3]; data not shown): did not induce CMKLR1-mediated chemotaxis; chemotactic activity after sequential treatment with plasmin and CPN or CPB ([3]; plasmin 1 μM, CPN or CPB 30 nM, final chemerin concentration 0.5 nM, Fig. 3B): dramatically enhanced; chemotactic bioactivity after plasmin alone ([3]; prochemerin activation by plasmin, dose-response, Fig. 3A): increased its chemotactic bioactivity
